According to article PMC6477699, “Phylogenetic Analyses and GAGA-Motif Binding Studies of BBR/BPC Proteins Lend to Clues in GAGA-Motif Recognition and a Regulatory Role in Brassinosteroid Signaling”:

Columns and labels:
[1] = biological target: T1, BPC1-WARH (Arabidopsis thaliana, UniProt Q9SKD0 1-270); assay: DPI-ELISA; DPI-ELISA/qDPI-ELISA: 3 ug total E. coli protein extract and 2 pmol biotinylated dsDNA per well in buffered solution; salt, pH and temperature not stated (cited protocols); conditions: protein: recombinant; tags: N-terminal 6xHis (pET32b-GW); label: 5' or 3' biotin not specified, sense strand biotin
T1 sequence: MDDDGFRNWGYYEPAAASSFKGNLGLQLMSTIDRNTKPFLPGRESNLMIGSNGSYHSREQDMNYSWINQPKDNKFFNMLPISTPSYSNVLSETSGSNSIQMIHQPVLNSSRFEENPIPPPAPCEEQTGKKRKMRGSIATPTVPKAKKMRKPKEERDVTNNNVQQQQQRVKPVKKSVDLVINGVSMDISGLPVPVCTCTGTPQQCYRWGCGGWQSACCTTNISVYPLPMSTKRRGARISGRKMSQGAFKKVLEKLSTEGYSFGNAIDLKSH

[2] = biological target: T2, BPC1-TIR (Arabidopsis thaliana, UniProt Q9SKD0 1-280); assay: DPI-ELISA; about 30% less than wild type; DPI-ELISA/qDPI-ELISA: 3 ug total E. coli protein extract and 2 pmol biotinylated dsDNA per well in buffered solution; salt, pH and temperature not stated (cited protocols); conditions: protein: recombinant; tags: N-terminal 6xHis (pET32b-GW); label: 5' or 3' biotin not specified, sense strand biotin
T2 sequence: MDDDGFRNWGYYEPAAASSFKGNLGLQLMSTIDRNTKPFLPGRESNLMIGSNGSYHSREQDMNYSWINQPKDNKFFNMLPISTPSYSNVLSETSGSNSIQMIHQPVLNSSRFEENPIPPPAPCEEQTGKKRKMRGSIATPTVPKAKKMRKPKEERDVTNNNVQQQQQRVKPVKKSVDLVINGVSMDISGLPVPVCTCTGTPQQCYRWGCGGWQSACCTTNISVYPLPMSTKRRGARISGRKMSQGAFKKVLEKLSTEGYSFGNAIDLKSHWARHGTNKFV

[3] = biological target: T3, BPC1 (Arabidopsis thaliana, UniProt Q9SKD0 1-283); assay: DPI-ELISA; DPI-ELISA/qDPI-ELISA: 3 ug total E. coli protein extract and 2 pmol biotinylated dsDNA per well in buffered solution; salt, pH and temperature not stated (cited protocols); conditions: protein: recombinant; tags: N-terminal 6xHis (pET32b-GW); label: biotin on sense strand
T3 sequence: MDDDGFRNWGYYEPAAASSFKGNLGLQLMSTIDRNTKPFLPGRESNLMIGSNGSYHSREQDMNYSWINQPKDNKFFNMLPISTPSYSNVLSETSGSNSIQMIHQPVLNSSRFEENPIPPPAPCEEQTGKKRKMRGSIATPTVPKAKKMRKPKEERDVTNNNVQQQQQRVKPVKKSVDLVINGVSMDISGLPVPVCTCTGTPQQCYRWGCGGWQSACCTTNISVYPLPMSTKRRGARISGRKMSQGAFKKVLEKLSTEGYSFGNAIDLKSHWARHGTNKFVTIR

[4] = biological target: T4, GFP-BPC6 (Arabidopsis thaliana, UniProt Q8L999 1-342); assay: qDPI-ELISA; DPI-ELISA/qDPI-ELISA: 3 ug total E. coli protein extract and 2 pmol biotinylated dsDNA per well in buffered solution; salt, pH and temperature not stated (cited protocols); conditions: protein: recombinant; tags: GFP fusion; label: biotin on sense strand
T4 sequence: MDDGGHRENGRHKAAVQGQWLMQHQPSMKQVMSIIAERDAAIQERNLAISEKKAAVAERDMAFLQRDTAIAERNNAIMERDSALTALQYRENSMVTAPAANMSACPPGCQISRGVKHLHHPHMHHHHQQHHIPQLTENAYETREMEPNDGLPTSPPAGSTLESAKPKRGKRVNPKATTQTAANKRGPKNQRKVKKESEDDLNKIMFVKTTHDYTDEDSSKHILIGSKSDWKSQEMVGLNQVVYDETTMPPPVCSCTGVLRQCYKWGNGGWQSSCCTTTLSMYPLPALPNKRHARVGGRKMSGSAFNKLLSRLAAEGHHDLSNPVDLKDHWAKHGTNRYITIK

[5] = biological target: T4, GFP-BPC6; assay: qDPI-ELISA; similar to the other 2x GAGA probes; DPI-ELISA/qDPI-ELISA: 3 ug total E. coli protein extract and 2 pmol biotinylated dsDNA per well in buffered solution; salt, pH and temperature not stated (cited protocols); conditions: protein: recombinant; tags: GFP fusion; label: biotin on sense strand
[6] = biological target: T3, BPC1; assay: DPI-ELISA; comparable to K4; DPI-ELISA/qDPI-ELISA: 3 ug total E. coli protein extract and 2 pmol biotinylated dsDNA per well in buffered solution; salt, pH and temperature not stated (cited protocols); conditions: protein: recombinant; tags: N-terminal 6xHis (pET32b-GW); label: biotin on sense strand
[7] = biological target: T4, GFP-BPC6; assay: qDPI-ELISA; 2.5-times lower than BKn3; DPI-ELISA/qDPI-ELISA: 3 ug total E. coli protein extract and 2 pmol biotinylated dsDNA per well in buffered solution; salt, pH and temperature not stated (cited protocols); conditions: protein: recombinant; tags: GFP fusion; label: biotin on sense strand
[8] = biological target: T4, GFP-BPC6; assay: qDPI-ELISA; negative binding probe, used as background; DPI-ELISA/qDPI-ELISA: 3 ug total E. coli protein extract and 2 pmol biotinylated dsDNA per well in buffered solution; salt, pH and temperature not stated (cited protocols); conditions: protein: recombinant; tags: GFP fusion; label: biotin on sense strand

B1: K4 (dsDNA)
DNA 1: TAAAGGAGAAAGAAAGAGAAAGAGAGTTTC
DNA 2: GAAACTCTCTTTCTCTTTCTTTCTCCTTTA
**Q.** Which results are given for B1?
**A.** binding result [1]: no binding; binding signal [2]: ~70 % of wild-type BPC1 signal

B2: BKn3 (dsDNA)
DNA 1: CCGCCATTAATTCATGAGAGAGAGAGAGAGACCAGAGATAA
DNA 2: TTATCTCTGGTCTCTCTCTCTCTCTCATGAATTAATGGCGG
**Q.** With B2 as the binder, how does the binding signal [3] read?
**A.** Its binding signal is ~2 fold of K4 signal.

**Q.** What about the binding signal [4] of the same binder?
**A.** Its binding signal is ~2.5 fold of KNAT1/BP fluorescence.

B3: K12 (dsDNA)
DNA 1: AATTGGAAATATGGAGAGAGAAAACAAATC
DNA 2: GATTTGTTTTCTCTCTCCATATTTCCAATT
**Q.** Does B3 bind [5]?
**A.** Result: binds

B4: K4mut7mut5 (dsDNA)
DNA 1: TAAAGGAGCAAGTAAGAGAACGAGAGTTTC
DNA 2: GAAACTCTCGTTCTCTTACTTGCTCCTTTA
**Q.** Does B4 bind [5]?
**A.** Result: binds

B5: GAGA2 (dsDNA)
DNA 1: GGAGCAAGTAAGAGATGAAACGAGAGTTTC
DNA 2: GAAACTCTCGTTTCATCTCTTACTTGCTCC
**Q.** Does B5 bind [5]?
**A.** Result: binds

B6: KNAT1/BP (dsDNA)
DNA 1: ATGAGGGCAAAGAGAGATGAGAGAAAATTTATACGTAC
DNA 2: GTACGTATAAATTTTCTCTCATCTCTCTTTGCCCTCAT
**Q.** Does B6 bind [6]?
**A.** Result: binds

**Q.** Does B6 bind [7]?
**A.** Result: binds

B7: Kneg (dsDNA)
DNA 1: TAATGCAGCAAGTAAGACTACGACTGTTTC
DNA 2: GAAACAGTCGTAGTCTTACTTGCTGCATTA
**Q.** Does B7 bind [8]?
**A.** Result: no binding
